Source: patent US20120316071A1 (published 2012)
Where a chain is given by its changes, count along the chain named. Names and notes keep the numbering of the source.

T1: rHuman Erythropoietin R/Fc Chimera, CF (R&D Systems Cat#963-ER) (human, UniProt P19235 25-250)
T1 construct: Bought recombinant protein; also called EPO R; Epo R; Fc part of the bought chimera not given
T1 sequence (looked up): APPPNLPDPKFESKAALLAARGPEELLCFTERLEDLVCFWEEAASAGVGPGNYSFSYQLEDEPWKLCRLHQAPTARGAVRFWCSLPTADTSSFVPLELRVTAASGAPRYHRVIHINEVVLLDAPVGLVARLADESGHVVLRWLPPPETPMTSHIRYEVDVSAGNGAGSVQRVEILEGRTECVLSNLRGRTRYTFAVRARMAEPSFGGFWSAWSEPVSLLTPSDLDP

B1: Fab VH5-51_IGHD5-18*01>3_IGHJ4*01 G100K/G104T (H:KT) & V3-4_IGLJ1*01 (wildtype light chain) (Fab, V domains shown)
VH: EVQLVQSGAEVKKPGESLKISCKGSGYSFTSYWIGWVRQMPGKGLEWMGIIYPGDSDTRYSPSFQGQVTISADKSISTAYLQWSSLKASDTAMYYCARRKYSYTYDYFDYWGQGTLVTVSS
VL: QTVVTQEPSFSVSPGGTVTLTCGLSSGSVSTSYYPSWYQQTPGQAPRTLIYSTNTRSSGVPDRFSGSILGNKAALTITGAQADDESDYYCVLYMGSGISYVFGTGTKVTVL
notes: Fab made in E. coli; VH was cloned into Plasmid A (CH1, His6 and Flag tags) and lambda VL into Plasmid E (lambda CL); also called H:KT & L:wt; KT double mutant
B2: Fab VH5-51_IGHD5-18*01>3_IGHJ4*01 G100K/G104T (H:KT) & V3-4_IGLJ1*01 T55A (Fab, V domains shown)
VH: B1 VH
VL: B1 VL with T55A
notes: Fab (CH1 with His6/Flag tags from Plasmid A, lambda CL from Plasmid E); also called G100K/G104T & T55A
B3: Fab VH5-51_IGHD5-18*01>3_IGHJ4*01 G100K/G104T (H:KT) & V3-4_IGLJ1*01 T53A (Fab, V domains shown)
VH: B1 VH
VL: B1 VL with T53A
notes: Fab (CH1 with His6/Flag tags from Plasmid A, lambda CL from Plasmid E); also called G100K/G104T & T53A
B4: Fab VH5-51_IGHD5-18*01>3_IGHJ4*01 G100K/G104T (H:KT) & V3-4_IGLJ1*01 S52A (Fab, V domains shown)
VH: B1 VH
VL: B1 VL with S52A
notes: Fab (CH1 with His6/Flag tags from Plasmid A, lambda CL from Plasmid E); also called G100K/G104T & S52A
B5: Fab VH5-51_IGHD5-18*01>3_IGHJ4*01 G100K/G104T (H:KT) & V3-4_IGLJ1*01 S57A (Fab, V domains shown)
VH: B1 VH
VL: B1 VL with S57A
notes: Fab (CH1 with His6/Flag tags from Plasmid A, lambda CL from Plasmid E); also called G100K/G104T & S57A
B6: Fab VH5-51_IGHD5-18*01>3_IGHJ4*01 G100K/G104T (H:KT) & V3-4_IGLJ1*01 N54A (Fab, V domains shown)
VH: B1 VH
VL: B1 VL with N54A
notes: Fab (CH1 with His6/Flag tags from Plasmid A, lambda CL from Plasmid E); also called G100K/G104T & N54A
B7: Fab VH5-51_IGHD5-18*01>3_IGHJ4*01 G100K/G104T (H:KT) & V3-4_IGLJ1*01 S58A (Fab, V domains shown)
VH: B1 VH
VL: B1 VL with S58A
notes: Fab (CH1 with His6/Flag tags from Plasmid A, lambda CL from Plasmid E); also called G100K/G104T & S58A
B8: Fab VH3-23_IGHD2-21*01>3_IGHJ6*01 H100E/S108P/Y113G Y110H & V2-13_IGLJ2*01 (Fab, V domains shown)
VH: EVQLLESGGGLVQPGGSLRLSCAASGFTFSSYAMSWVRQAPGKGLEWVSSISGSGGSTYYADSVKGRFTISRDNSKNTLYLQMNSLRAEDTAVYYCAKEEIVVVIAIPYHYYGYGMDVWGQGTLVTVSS
VL: SSELTQDPAVSVALGQTVRITCQGDSLRSYYASWYQQKPGQAPVLVIYGKNNRPSGIPDRFSGSSSGNTASLTITGAQAEDEADYYCNSRDSSGNHLVVFGGGTKLTVL
notes: Tested as Fab made in E. coli: VH joined to CH1 (His and Flag tags), VL joined to lambda CL; also called EPG Y110H
B9: Fab VH3-23_IGHD2-21*01>3_IGHJ6*01 H100E/S108P/Y113G Y109G & V2-13_IGLJ2*01 (Fab, V domains shown)
VH: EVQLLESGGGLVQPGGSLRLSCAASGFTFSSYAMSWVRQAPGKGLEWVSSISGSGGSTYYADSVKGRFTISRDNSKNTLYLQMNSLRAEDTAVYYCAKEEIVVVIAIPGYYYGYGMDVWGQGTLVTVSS
VL: B8 VL
notes: Tested as Fab made in E. coli: VH joined to CH1 (His and Flag tags), VL joined to lambda CL; also called EPG Y109G
B10: Fab VH3-23_IGHD2-21*01>3_IGHJ6*01 H100E/S108P/Y113G Y109R & V2-13_IGLJ2*01 (Fab, V domains shown)
VH: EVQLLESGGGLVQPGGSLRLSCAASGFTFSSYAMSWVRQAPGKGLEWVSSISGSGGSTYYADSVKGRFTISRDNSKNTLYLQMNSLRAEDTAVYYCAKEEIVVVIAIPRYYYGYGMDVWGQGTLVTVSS
VL: B8 VL
notes: also called EPG Y109R

These binders were tested against T2, Recombinant Human DLL4 (delta-like protein 4) (human, UniProt Q9NR61 27-524) (assay: ECL (MSD) multispot binding assay, Fab on immobilised recombinant human DLL4).
T2 construct: also called rHuman DLL4; Delta-like 4

ECL signal	Binder
9360	B1
12700	B2
13200	B3
15200	B4
12600	B5
12900	B6
12600	B7

What follows are binders tested against T3, Recombinant Human DLL4 (R&D Systems Cat#1506-D4/CF) (human, UniProt Q9NR61 27-524) (assay: ECL multispot (MSD) binding assay, antigens spotted on plate, 20 nM Fab;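 also: fab incubated 1 h at 20 °C on antigen-spotted wells, bound Fab detected by TAG-labelled antibody, ratio of 4 or more over blank counted as a hit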).
T3 construct: Bought recombinant protein; also called delta-like protein 4; rHuman DLL4

ECL multispot signal (ratio to blank; column not labelled)	Binder
1.9	B8
1.9	B9
1.5	B10

Each binder was assayed against T4, rHuman P-Cadherin/Fc Chimera, CF (R&D Systems Cat#861-PC) (human, UniProt P22223 108-654) in the same assay as above.
T4 construct: Bought recombinant protein; Fc part of the bought chimera not given

ECL multispot signal (ratio to blank; column not labelled)	Binder
7.4	B10

What follows are binders tested against T5, rHuman EGF R/Fc Chimera, CF (R&D Systems Cat#344-ER) (human, UniProt P00533 25-645) in the same assay as above.
T5 construct: Bought recombinant protein; also called epidermal growth factor receptor; Fc part of the bought chimera not given

ECL multispot signal (ratio to blank; column not labelled)	Binder
1.7	B8
2	B9
1.8	B10

The binders below were run against T6, rHuman IGF-1 sR, (IGF-1 sR), CF (R&D Systems Cat#391-GR) (human, UniProt P08069 31-932) in the same assay as above.
T6 construct: Bought recombinant soluble receptor; The column head prints only 'IGF-1'; also called insulin-like growth factor-1 soluble receptor

ECL multispot signal (ratio to blank; column not labelled)	Binder
1.3	B8
1.6	B9
1.3	B10

Each binder was assayed against T7, rHuman ErbB2/Fc Chimera, CF (R&D Systems Cat#1129-ER) (human, UniProt P04626 23-652) in the same assay as above.
T7 construct: Bought recombinant protein; also called human epidermal growth factor 2 receptor; Fc part of the bought chimera not given

ECL multispot signal (ratio to blank; column not labelled)	Binder
2.2	B8
1.4	B9
2	B10

Each binder was assayed against T1, rHuman Erythropoietin R/Fc Chimera, CF … in the same assay as above.

ECL multispot signal (ratio to blank; column not labelled)	Binder
11.1	B9
30.1	B10

These binders were tested against T8, rHuman Notch-1/Fc Chimera, CF (R&D Systems Cat#3647-TK) (human, UniProt P46531 19-526) in the same assay as above.
T8 construct: Bought recombinant protein; Fc part of the bought chimera not given

ECL multispot signal (ratio to blank; column not labelled)	Binder
1.4	B8
1.5	B9
1.4	B10

The binders below were run against T9, rHuman CD44/Fc Chimera, CF (R&D Systems Cat#3660-CD) (human, UniProt P16070 21-220) in the same assay as above.
T9 construct: Bought recombinant protein; Fc part of the bought chimera not given

ECL multispot signal (ratio to blank; column not labelled)	Binder
1.4	B8
1.5	B9
1	B10
